This passage reports Km, kcat and kcat/Km results from ChEMBL document CHEMBL1139388, “Crystal structure of the Homo sapiens kynureninase-3-hydroxyhippuric acid inhibitor complex: insights into the molecular basis of kynureninase substrate specificity” (J Med Chem, 2009).

Substitutions are numbered along the chain they refer to. Names and notes keep the numbering of the source. Some results are limits rather than exact numbers.

Details in all cases: Homo sapiens
Substrate in data set [1]: Nc1c(O)cccc1C(=O)CC(N)C(=O)O
Description: (§1) Activity of human wild type kynureninase
Substrate in data set [2]: Nc1ccccc1C(=O)C[C@H](N)C(=O)O
Description: as §1
Substrate in data set [3]: Nc1c(O)cccc1C(=O)CC(N)C(=O)O
The source holds these as a separate data set.
Description: (§2) Ratio of kcat to Km for human wild type kynureninase

Substrate in data set [4]: Nc1ccccc1C(=O)C[C@H](N)C(=O)O
This is another data set of the same source.
Description: as §2

Substrate in data set [5]: Nc1c(O)cccc1C(=O)CC(N)C(=O)O
The source holds these as a separate data set.
Description: (§3) Activity of human kynureninase N333T mutant

Substrate in data set [6]: Nc1ccccc1C(=O)C[C@H](N)C(=O)O
The source holds these as a separate data set.
Description: as §3

Substrate in data set [7]: Nc1c(O)cccc1C(=O)CC(N)C(=O)O
This is another data set of the same source.
Description: (§4) Ratio of kcat to Km for human kynureninase N333T mutant

Substrate in data set [8]: Nc1ccccc1C(=O)C[C@H](N)C(=O)O
This is another data set of the same source.
Description: as §4

Substrate in data set [9]: Nc1c(O)cccc1C(=O)CC(N)C(=O)O
The source holds these as a separate data set.
Description: (§5) Ratio of kcat to Km for human kynureninase H102W/N333T mutant

Substrate in data set [10]: Nc1ccccc1C(=O)C[C@H](N)C(=O)O
The source holds these as a separate data set.
Description: as §5

Substrate in data set [11]: Nc1ccccc1C(=O)C[C@H](N)C(=O)O
The source holds these as a separate data set.
Description: Activity of human kynureninase H102W/N333T mutant

Substrate in data set [12]: Nc1c(O)cccc1C(=O)CC(N)C(=O)O
The source holds these as a separate data set.
Description: (§6) Activity of human kynureninase S332G/N333T mutant

Substrate in data set [13]: Nc1ccccc1C(=O)C[C@H](N)C(=O)O
The source holds these as a separate data set.
Description: as §6

Substrate in data set [14]: Nc1c(O)cccc1C(=O)CC(N)C(=O)O
This is another data set of the same source.
Description: (§7) Ratio of kcat to Km for human kynureninase S332G/N333T mutant

Substrate in data set [15]: Nc1ccccc1C(=O)C[C@H](N)C(=O)O
This is another data set of the same source.
Description: as §7

Substrate in data set [16]: Nc1c(O)cccc1C(=O)CC(N)C(=O)O
This is another data set of the same source.
Description: (§8) Ratio of kcat to Km for human kynureninase H102W/S332G/N333T mutant

Substrate in data set [17]: Nc1ccccc1C(=O)C[C@H](N)C(=O)O
The source holds these as a separate data set.
Description: as §8

Substrate in data set [18]: Nc1ccccc1C(=O)C[C@H](N)C(=O)O
Description: Activity of human kynureninase H102W/S332G/N333T mutant
This is another data set of the same source.

B1: Kynureninase (Homo sapiens), Q16719 (protein)
chain: MEPSSLELPADTVQRIAAELKCHPTDERVALHLDEEDKLRHFRECFYIPKIQDLPPVDLSLVNKDENAIYFLGNSLGLQPKMVKTYLEEELDKWAKIAAYGHEVGKRPWITGDESIVGLMKDIVGANEKEIALMNALTVNLHLLMLSFFKPTPKRYKILLEAKAFPSDHYAIESQLQLHGLNIEESMRMIKPREGEETLRIEDILEVIEKEGDSIAVILFSGVHFYTGQHFNIPAITKAGQAKGCYVGFDLAHAVGNVELYLHDWGVDFACWCSYKYLNAGAGGIAGAFIHEKHAHTIKPALVGWFGHELSTRFKMDNKLQLIPGVCGFRISNPPILLVCSLHASLEIFKQATMKALRKKSVLLTGYLEYLIKHNYGKDKAATKKPVVNIITPSHVEERGCQLTITFSVPNKDVFQELEKRGVVCDKRNPNGIRVAPVPLYNSFHDVYKFTNLLTSILDSAETKN
Consider B1, for which the results for the Michaelis-Menten constant (Km) in data set [1] and in data set [2] were 28.3 µM and 495 µM, respectively. The results for the kcat in [1] and in data set [2] were 3.5 s⁻¹ and 0.23 s⁻¹, respectively. The values for the kcat/Km in data set [3] and in data set [4] were 1.23 ×10⁵ /M/s and 465 M⁻¹ s⁻¹, respectively.

B2: Kynureninase (Homo sapiens), Q16719 N333T (protein)
chain: B1 chain with N333T
For the protein B2, the results for the Km in data set [5] and in [6] were > 200 µM and 499 µM, respectively. Besides, the kcat in [5] was < 3.9 ×10⁻³ /s; in [6], 0.026 s⁻¹. The kcat/Km in [7] stood at 19.8 M⁻¹ s⁻¹; in [8], 52.1 M⁻¹ s⁻¹.

B3: Kynureninase (Homo sapiens), Q16719 H102W,N333T (protein)
chain: B1 chain with H102W, N333T
On to B3, for which the kcat/Km was < 0.0165 M⁻¹ s⁻¹ in [9] and 21.4 M⁻¹ s⁻¹ in [10]. Further, in [11], the Km worked out at 327 µM. Also, the kcat in [11] came out at 0.007 s⁻¹.

B4: Kynureninase (Homo sapiens), Q16719 S332G,N333T (protein)
chain: B1 chain with S332G, N333T
With B4, the Michaelis constant (Km) in [12] was > 510 µM; in data set [13], 540 µM. The kcat in [12] was < 10.9 ×10⁻³ /s; in data set [13], 0.017 s⁻¹. Moreover, the kcat/Km in [14] turned out to be 21.5 M⁻¹ s⁻¹; in [15], 31.4 M⁻¹ s⁻¹.

B5: Kynureninase (Homo sapiens), Q16719 H102W,S332G,N333T (protein)
chain: B1 chain with H102W, S332G, N333T
Take B5: the kcat/Km in [16] is < 0.0165 M⁻¹ s⁻¹. For the same protein, the kcat/Km in [17] stood at 126 M⁻¹ s⁻¹. Further, in [18], the Km was 143 µM and the kcat came out at 0.018 s⁻¹.
